Data reported in a protein production outcome set (Wang et al. 2014).

assay: label from the status in PepcDB records

Question: With “AKESEQKVTIDSAKHEKHTKDKEENNSANTVFFDKINDLLVASVKEFEGTVGISYLDLETGEQRSVNGQHEFYTASTIKVPLTMLVADTVASGQKKWTDLIPYNAEEDYEEGTGIIAYNIQPEYPLKTLQEYAITYSDNIAKNMLYDTLGGDAKAKREMYQRYLHKTPSIEEPQFSSEDALVILQKLYTEKATKPDYQAIYDSMKQSVFHERMETPTTQGKVAHKIGSYDEFIHDMGILETPHPFALAIFTKGPDNAKSAAFIASVTDKLWQLQVSEYPNQ” as the sequence, how does the protein production read?
Answer: not failed

Question: Which protein production does the source give for “AKRVVFVTVGTTSFDALVKAVVSQNVKDELQKRGFTHLLIQMGRGIFFPTKCDGADGSLVVDYFTFSSSIADYIRSASLVISHAGSGSIFETLKLGKPLIVVVNEDLMDNHQCELAEALEERKHLYYTRPHSLHQTLTKMELGSLVQYTPGDGTPVARIIDRFLG” here?
Answer: failed

Question: For “AKVVFYEKPGCVGNARQKALLTASGHELEVRNLLAEPWTRETLRPFFGDKPLIEWFNQSSPKVKAGAIDFAALGVEAALALMIEDPLLIRRPLMQSGDRREVGFDQATVHAWLG”, which protein production is on record?
Answer: failed

Question: Which protein production does the source give for “ALFHKKLTEGVLMRDPKFLWCAQCSFGFIYEREQLEATCPQCHQTFCVRCKRQWEEQHRGRSCEDFQNWKRMN” here?
Answer: not failed

Question: With “ALKQKIIGNGEKRVVTYAPTWREDDFISVGHYHFRWHFSLKKMMGLLPEDVMLLIRPHYLVTDRIDIKGFEDRVVIDSTTDMNEIYLITDLMVTDYSSVMFDFAILKRPMLFFAYDLEYYRDDLRGFYFDYYTELPGSIVTDETHLLAEIDQLLQNNFAELDPERFNKFAKRFVSWERGTAAQQVIEKINY” as the sequence, how does the protein production read?
Answer: not failed

Question: Which protein production does the source give for “ALPDPVKPKAPKAVNPFHLGMAGYTFVNFDLDTTLKTLERLDIHYLCIKDFHLPLNSTDEQIRAFHDKCAAHKVTGYAVGPIYMKSEEEIDRAFDYAKRVGVKLIVGVPNYELLPYVDKKVKEYDFHYAIHLHGPDIKTYPDATDVWVHTKDLDPRIGMCLDVGHDLRNGCDPVADLKKYHTRVFDMHIKDVTDSSKAGVGIEIGRGKIDFPALIRMMREVNYTGMCSLEYEKDMKDPFLGIAESIGYFKAVSDLT” here?
Answer: not failed

Question: For “ANIYTFDFDEIESQEDFYRDFSQTFGLAKDKVRDLDSLWDVLMNDVLPLPLEIEFVHLGEKTRRRFGALILLFDEAEEELEGHLRFNVRH”, which protein production is on record?
Answer: not failed

Question: Which protein production does the source give for “APSQGATANAETQTTIPLGDTSQNALDWPGVYEGVLPCASCEGIQTTLTLQADNSFELKSIYLGKDESIFKVAGKFDWDSNGSKITLSDGSKYLVGENQLLMLDTEGNRITGGLAEHYILKKKGM” here?
Answer: not failed

Question: For “AQGLDGRMLVEAPEEVGAPADVAARLGIEPGALVVHRRRRATIGEDVVQLQDAWYPLEIARAAGLDRPGKVVGGVLGAMTGAGLSPTSTDHDVEVWVPSAQQAAELSLGSRVSVLVVERVTYDATVRVLELTRHTGAADRLTLTYKGLPLRATGAEGSTS”, which protein production is on record?
Answer: failed

Question: With “AQQQELPVPKPHQLKWHEAEMGAVFHYDLHVFDGIRYGQGNNRINPIEDYNIFNPTELNTDQWVQAAKAAGCKFAVLTATHETGFGLWQSDVNPYCLKAVKWRDGKGDIVRDFVNSCRKYGLQPGIYIGIRWNSLLGIHNFKAEGEGAFARNRQAWYKRLCEKMVTELCTRYGDLYMIWFDGGADDPRADGPDVEPIVNKYQPNCLFYHNIDRADFRWGGSETGTVEYPCWSTFPVPCSHHKRIESSIDQLELLKHGDKNGRYWVPAMADTPLRGANGRHEWFWEPDDENNIYPLNTLMDKYEKSVGRNATLILGLTPDPTGLIPAGDAQRLKEMGDEINRRFSSPIARISGQKKSLTLKLGKEQSVNYCIIQENIKNGERIRQYQIEAKVNGKWQTVCKGESVGHKRIEKFEPVEATALRLTVSESIALPDIINFSAYSVK” as the sequence, how does the protein production read?
Answer: not failed

Question: For “AQRRNEIQVPDLDGYTTLKCDFHMHSVFSDGLVWPTVRVDEAYRDGLDAISLTEHIEYRPHKQDVVSDHNRSFDLCREQAEKLGILLIKGSEITRAMAPGHFNAIFLSDSNPLEQKDYKDAFREAKKQGAFMFWNHPGWDSQQPDTTKWWPEHTALYQEGCMHGIEVANGHLYMPEAIQWCLDKNLTMIGTSDIHQPIQTDYDFEKGEHRTMTFVFAKERSLQGIREALDNRRTAAYFHELLIGREDLLRPFFEKCVKIEEVSRNEQGVTLSITNVTDLVLKLKKTAHDTLLVYFRDMTLKPHTRYTVRIGFKQGIKGGDVNFEVTNFIVAPDKGLKYTISL”, which protein production is on record?
Answer: not failed

Question: With “ARYYQHNAIEAVLEAISQGKNRMLLTLATGTGKTFIAFQLAWKLFQAKWNISGEPTHRPRILFLADRNILANQAFNAFGAFDDDALVRIDPKEIKKKGKVPKNGSLFFSIFQTFMTTKGDKDFAHFYDYAPDFFDFIIIDECHRGGANDESTWRKILEYFSPAVQLGLTATPKRDVNGDTYKYFGEPLYTYSLKEGINDGYLTPFKVVQFTTTLDEYLYDPDDDVIEGDIDEARTYEEKDFNRIIEMEEREKQRVQLFMEAINQNEKTLVFCATQDHALAVRDLINQMKISTDPNYCVRVTANDGSIGETNLKTFQDNEKAIPTILTTSRKLSTGVDARNVRNIVLLRPINSMIEFKQIIGRGTRLFDNKDYFTIYDFVRAYEHFNDDEWDGEPTEPVAIDPEPRKEREKIDLDLEDEPEENRKPQKIKVKLADGKERELAHTQTTTFWDADGKPISAQEFIEKLFGDLPDLFKDEAELRTIWGKPDTRKSFLTGLAE” as the sequence, how does the protein production read?
Answer: failed

Question: Which protein production does the source give for “ASASIKKVAATLADAAITDGIGDATKAKAALDKISDAGGLIEDIGATRAQFGANINRLEHTMTNLGNMVENTSAAKGRIM” here?
Answer: failed

Question: With “ASPVENKEVYQCRLCNAKLSSLLEQGSHERLCRNAAVCPYCSLRFFSPELKQEHESKCEYKKLTCLECMRTFKSSFSIWRHQVEVHNQNNMAPT” as the sequence, how does the protein production read?
Answer: not failed

Question: For “ATKEFIYLVRGMTPEQGQAALDLKVPGVYGIEEFRRFYPAGDVTAHMVGFTDLDDHGREGVELAYDDWLAGVPGKRQVIKDRRGRLIKDVQVTKNAKAGKTLALSID”, which protein production is on record?
Answer: failed

Question: With “ATLKQLDGIHVTILHKEEGAGLGFSLAGGADLENKVITVHRVFPNGLASQEGTIQKGNEVLSINGKSLKGTTHHDALAILRQAREPRQAVIVTRKLTPEAMPDLNS” as the sequence, how does the protein production read?
Answer: not failed

Question: For “AWMHGHRFYVDERVIVPRSFIGELLDDGLQPYVEDPELVGSVLELCTGSGCLAILAALAFPNASVDAVDLSADALAVAKINRDDYGLDERIALHHGDLYAPLPQFKWIDSAQRYDVIITNPPYVNAESMAELPAEYRHEPEMALAGGADGMDIVRRIIGEARRWLKDDGVLVVEIGNERANVEAAFGGLELVWLPTSAGDDSVFLIHASD”, which protein production is on record?
Answer: failed

Question: Which protein production does the source give for “AYGLTFEAPKGILVEEDTEETFLLNNSRFYITIQSLDSDGMTKSDLKSVLKDYANDDGVKDQSAVQEFELPQFFGTYLKGSCETDHCLYACLMTKAAGSGFYISIIYSKENENIAEKILKSFTMEE” here?
Answer: not failed

Question: For “CKLCLGEYPVEQMTTIAQCQCIFCTLCLKQYVELLIKEGLETAISCPDAACPKQGHLQENEIECMVAAEIMQRYKKLQFER”, which protein production is on record?
Answer: not failed

Question: For “CSEVNVVKERPKTDEHKSYSCSFKGCTDVELVAVICPYCEKNFCLRHRHQSDHDCEKLEVAKPRMAATQKLVR”, which protein production is on record?
Answer: not failed

Question: For “CVACSKPISGLTGAKFICFQDSQWHSECFNCGKCSVSLVGKGFLTQNKEIFCQKCGSGMDTDI”, which protein production is on record?
Answer: not failed

Question: Which protein production does the source give for “DAAPAPAAEAAPAAAPAPAAAAELKEVHVPDIGGDEVEVTEIMVAIGDSIEEEQSLITVEGDKASMEVPAPFAGTLKEIKVAAGDKVSTGSLIMVFETAGSGAPAAPAAVEAPAAAAPAASAA” here?
Answer: failed

Question: Which protein production does the source give for “DASRQAELVREGITSSSDLVEQSLNKIEKGNSQLNAVTYLRADRALEEAKQINDHGQPFFGVPILLKGLGQKLAGEPATASSRLLKKLVADQTDFYVQALQKAGFIVIGQTNAPEFGFKNITDPTLYGPTRNPWNLDYYSGGSSGGAASSMAADFVSIASGSDGGGSIRIPASFSSLIGLKPTRGRIPVGPTDWRTWQGASISFALTRSVRDNARLLDAIQTVQPAAAFTTPLYEAGFFAGIDQLDRNLTIAYTTKSPVGTEVRDEAKTAVENAVDFLRSEGFQVEEQENPLDGKEIMQLYYLMNAGETAAMFADIEEGIGRPTNIQDMELMSWVIYQAGKLVTAGEYSQALSKWDISSYQMNQFHENYDLYLTPTTAYPAPKLTDELISPELLGRMKEVTSLTSSFERQQLIYDAFLPSLALTPFTQQANLTGEPAISLPTHLTAAGLPLGIQFQAAKGREIDLLRIARLFEKHNLFHFLHKTIF” here?
Answer: failed

Question: Which protein production does the source give for “DCLLPIVAAPMAGGPTTVALAQAVSGVGGFPFLAGGYKSVEALATEIAVLRASGGNFGVNLFVPSPDMVDAEAFRIYAAKLQSEALPYGLRLDPLPVMGDDDGWPDKLALLLNDPVPVVSFTFGLPAVRDIAALRCAGSRVLASVTLPAEAQAAMEAGVDGLVVQGPDAGGHSATYDPGRPFTPLKTVSLVRRVCAVSSLPVIAAGGVDGPVMVRALLQAGAAAVAIGTLLLRTKESGATQVHKDALANPAYTETVITHAFTGRPARTLRNGFVNRYHASAPLGYPAIHHLTRPLRQAAASAGDADVLHLWAGTGYRQAMDGSAVDVIQ” here?
Answer: failed

Question: Which protein production does the source give for “DETYYTVDLEQKLEEKFGLEEAIVVATHDMSEEEALNFLAKEAAYTLSKRIAKVNTLGISWGKTIRKFANEFPYIPHKDLTIIPLIGGMGSSDIDLHSNQICYDLKKKMQCHSKYLYAPALVEDTEMKADLSKNKYINEVLEEGKTVDMAIVGVSSPYNQSTMEEIGYITPEDIEELRYKDVVGDINSRFFTANGEEANTQINTHVIGLSLEELKKIPTVVALANGLQKKDALVSALNAGLIDVIVITDRMAEYILQKND” here?
Answer: failed

Question: Which protein production does the source give for “DEWTDEQFKQLISFKTQPGGWGVTDVHVRYANSAKYTYNLPVLVSGSTDNTDDRLVSFSLRDDTLDILNFEKFGNRPELYFRELPQKYYSFPKELTIPAGQSHALLPIEFSLDGLDDSQKWALPLKVCEDANGTYAVNPRKYYRTAVLRPILFNEFSGRFSGSSLLGTMAGESDIKFSSTEIKLNVVTDSIVFFYAGQRTEDYEDRINYKVFLQFTGDKVDSKKDLYKMKIWAENEKLKFNSYSTPTYKVSSEMDATKTYLKHTYIVISDIDFDFVDYTSVPNYEIEYNMKGGLSVSRDLDTRKPDEDQGSDSKWW” here?
Answer: not failed

Question: Which protein production does the source give for “DHHAWHRLLDRALSEQHFQLYFQPVVAARDTHLVLHYKVLSRLLDEQGQTIPAGRFLPWLERFGWTSRLDLLMLEQVLRQMASHEDCLALNLSAATLADPHALNRVFEILRQHSDLGPRLTLEIGEEQLPEQAMLEQLTRRLRELGFSLSLQRFGGRFSMIGNLARLGLAYLKIDGSYIRDIDQESDKRLFIEAIQRAAHSIDLPLIAERVETEGELQVIREMGLYGVQGQLFGEPAPWG” here?
Answer: not failed

Question: With “DHSLAIIEFDLSSRIIEVNQNYLDYFGYQRDEVIGQYHLMFCHPGYANSDEYQKIKTSLLAGQSLEGRFERIHKDGSRVWLAAIYQPVSGPDGSVTRIVKIAKNIT” as the sequence, how does the protein production read?
Answer: failed

Question: For “DIRPSKLLTWCQQQTEGYQHVNVTDLTTSWRSGLALCAIIHRFRPELINFDSLNEDDAVENNQLAFDVAEREFGIPPVTTGKEMASAQEPDKLSMVMYLSKFYELFRGTPLRPV”, which protein production is on record?
Answer: not failed
